Results from patent publication EP4663659A1 (Merck Patent GmbH, dated 2025).

Molecular target: T1, human MUC-1 on cells (human, UniProt P15941 24-1255)
T1 construct: Endogenous on human tumour cell lines and normal kidney and lung cells; also called hMUC-1; mucin 1
Assay: flow cytometry with PE-labeled antibody on tumor cell lines, MESF by PE Quantum Beads

T1 sequence (P15941 24-1255 limits assumed): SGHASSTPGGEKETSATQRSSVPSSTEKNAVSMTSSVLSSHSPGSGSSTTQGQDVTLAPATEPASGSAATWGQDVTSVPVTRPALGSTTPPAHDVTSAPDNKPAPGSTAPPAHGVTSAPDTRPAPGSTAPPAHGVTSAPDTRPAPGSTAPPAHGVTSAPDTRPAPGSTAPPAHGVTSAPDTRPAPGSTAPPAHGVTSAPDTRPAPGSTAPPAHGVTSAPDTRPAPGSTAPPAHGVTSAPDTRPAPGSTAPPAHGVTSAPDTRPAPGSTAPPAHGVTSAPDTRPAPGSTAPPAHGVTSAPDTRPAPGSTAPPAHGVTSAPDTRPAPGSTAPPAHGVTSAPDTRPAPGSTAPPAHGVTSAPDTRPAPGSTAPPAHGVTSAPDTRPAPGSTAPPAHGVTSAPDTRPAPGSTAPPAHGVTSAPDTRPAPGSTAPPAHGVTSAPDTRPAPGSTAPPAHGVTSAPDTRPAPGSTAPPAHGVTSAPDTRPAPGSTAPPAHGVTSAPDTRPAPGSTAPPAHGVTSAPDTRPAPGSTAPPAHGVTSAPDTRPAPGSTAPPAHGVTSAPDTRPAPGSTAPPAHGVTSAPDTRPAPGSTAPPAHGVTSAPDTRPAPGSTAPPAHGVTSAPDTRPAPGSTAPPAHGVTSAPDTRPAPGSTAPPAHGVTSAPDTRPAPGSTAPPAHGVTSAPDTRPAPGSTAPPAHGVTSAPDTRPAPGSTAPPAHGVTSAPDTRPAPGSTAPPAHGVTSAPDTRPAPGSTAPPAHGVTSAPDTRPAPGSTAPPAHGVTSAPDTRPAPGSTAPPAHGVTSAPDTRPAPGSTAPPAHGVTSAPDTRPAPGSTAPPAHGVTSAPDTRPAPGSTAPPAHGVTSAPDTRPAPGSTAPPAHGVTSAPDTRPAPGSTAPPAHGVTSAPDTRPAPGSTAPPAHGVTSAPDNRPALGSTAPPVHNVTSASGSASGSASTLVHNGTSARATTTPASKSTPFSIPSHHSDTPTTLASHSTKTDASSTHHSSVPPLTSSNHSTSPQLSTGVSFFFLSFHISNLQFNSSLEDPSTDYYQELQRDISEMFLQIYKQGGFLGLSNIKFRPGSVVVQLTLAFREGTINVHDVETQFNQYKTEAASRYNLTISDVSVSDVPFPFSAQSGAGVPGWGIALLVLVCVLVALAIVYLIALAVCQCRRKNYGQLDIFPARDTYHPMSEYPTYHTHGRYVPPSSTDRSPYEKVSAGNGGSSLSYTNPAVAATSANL

B1: anti-MUC-1 (D11-28) antibody, PE-labeled (antibody, human IgG1, lambda, L234A L235A, V domains shown)
VH: EVQLVQSGAEVKKPGASVKVSCKASGYSFTGHYMHWVRQAPGQGLEWMGWIDPVTGGTKYAQKFQGWVTMTRDTSISTAYMELSRLRSDDTAVYYCAREVTGDRGQFDKWGQGTLVTVSS
VL: SYVLTQPPSVSVAPGKTARITCGGNNIGSKSVHWYQQKPGQAPVLVIYYGSNRPSGIPERFSGSNSGNTATLTISRVEAGDEADYYCQVWDSSSDWVFGGGTKLTVLG
modifications: PE (phycoerythrin) label, site not stated
notes: also called anti-MUC-1 antibody clone (D11-28); anti-MUC-1 PE antibody
  binding result: binds
